Target: the molecule itself
Assay: SEC

B1: Histidine-tagged M. tuberculosis ThyA (thymidylate synthase) (enzyme)
chain: MSIVTPYEDLLRFVLETGTPKSDRTGTGTRSLFGQQMRYDLSAGFPLLTTKKVHFKSVAYELLWFLRGDSNIGWLHEHGVTIWDEWASDTGELGPIYGVQWRSWPAPSGEHIDQISAALDLLRTDPDSRRIIVSAWNVGEIERMALPPCHAFFQFYVADGRLSCQLYQRSADLFLGVPFNIASYALLTHMMAAQAGLSVGEFIWTGGDCHIYDNHVEQVRLQLSREPRPYPKLLLADRDSIFEYTYEDIVVKNYDPHPAIKAPVAV
notes: also called conventional thymidylate synthase
stoichiometry N: 2
